This is an account of results in the DeepSol protein solubility set.

This series can be described thus: soluble on expression in E. coli; label from the status in PepcDB or PDB records.
Take “MGARGKFDQFDDGKIKLASSLTSKAAANALQTIIEKYNIVKSGKDYPIEITQIAGGYDGGRTDLQTRVSVKDKTNFYNLILNYPDLVSVLARSGMELLFDKVNVDKLEPNFLKFNEQISGVAKSGNYGIPVSLSTDILVLNGPVLHYILNSAKKEEANSQVKSQIKTSQIQAKGSLTIDTDENTKSLWEKIQNSAKANGETNQKGRKAAKSNKTALVQLKNGADTTTNEENKDTKTSDDKVKQTWGDYVEKDDGLKNYTFRASVFENWHDFLDFSTRVAKSFTEKVSNITNKKGTDIQGVLGVDSSPNVLFASVFAAGGGNYENFFYKLKDGRADFSNFKNKGSSYQNLQSVFKDLEHHHHHH”: the “soluble on expression in E. coli” value is listed as “not soluble”.

Consider “MGSDKIHHHHHHMSNQKIIRLSPNPQDFGHDCDDLDPQMFASELPVQHTHVYYEDDNLGLYIGVWDTSTMVEAAAPSPCDEFMYLLEGEVEIKNSKTGTMEKVQAGEAFVIPKGYDCQWHQTGYLRKFFVISEHPKEDIPTTPVVEGIIKLKVNNSSQMAIEDSTGVEIEPTNTPFVIKGKEPAQKHLPSYKDHTGKFIAGTWHSEAFNSEMQPFPRNEFIYLQSGSLVITEQEGDEQVFTAGDAFFVPQGALCSWRSIGDVHTFYAILQSS”, for which the “soluble on expression in E. coli” value was “not soluble”.

With “WWYEGYRPNAGWALTDKPTYRDQQMQDKLDALSLYDILEREIIPLYYDKEDKSYSEGWIRYIRRSMMYIAPHFTMKRMLDDYYDKFYGPLAQRHRSISASSFALASEIADWKQQTATHWDEMRVVRVAATGFGLCLQDNHTMQTLEIEIEKGNLSAELNVELVVISDDNQGGVSLVQTIPLNLSEQSADNRWQKYNVNCSLKNPGLHRVAIRITPHSDLLPHKMDFAYVRWAAIS”, the “soluble on expression in E. coli” value is “not soluble”.

Take “MGCTLSAEDKAAVERSKMIDRNLREDGERSRRELKLLLLGTGESGKSTFIKQMRIIHGSGYSDEDKRGFTKLVYQNIFTAMQAMIRAMDTLKIPYKYEHNKAHAQLVREVDVEKVSAFENPYVDAIKSLWNDPGIQECYDRRREYQLSDSTKYYLNDLDRVADPSYLPTQQDVLRVRVPTTGIIEYPFDLQSVIFRMVDVGGQRSERRKWIHCFENVTSIMFLVALSEYDQVLVESDNENRMEESKALFRTIITYPWFQNSSVILFLNKKDLLEEKIMYSHLVDYFPEYDGPQRDAQAAREFILKMFVDLNPDSDKIIYSHFTCATDTENIRFVFAAVKDTILQLNLKEYNLV”: the “soluble on expression in E. coli” value was “soluble”.

Take “MLIGMSNQTVNQAVSSGVKASPHRFNRFEIKYLITEQDVPALREQLATRMSTDPLSPPGGYRVESLYFDSADLRCYTEKIEGLKFRRKLRIRTYGDGVLTPESTVSVEIKQRVNKVTQKRRLDLPFIYALALGDSTGAAVGEQVDVEKLLEISPENQHALIHEMASFAKNYRLRPIATTKYHREAFVGADAEESSRVTIDHGVSGRDRDFLLGQDLEDRPTVAQGLAVVEIKCDERVPFWLTDMTAQLEMSVIRMSKYCETIEAFHNRPASAFGAVDPIFLEHHHHHH”: the “soluble on expression in E. coli” value is on record as “soluble”.

As to “MEKQLKAMSVSDKPAAPAAQKLGTAPLAAKKTRNEEWGTKVNIDTNIRKLTIKPNQPIYKYAVQVNYVFRKPDGTEATIEMSKSAKKGTEHDNDKTRCQNVYNEAIKRYDELKTGGPFFYDRQASLYTLTKLKNESISFVVTDKICKRQNFKEAQFVLKKVDQSFQSTSNDVIKTTNSCPANADKTLLEAMNIIVSGPAFENKNVITVGACVHYLIDPTGVDVAYKEYPEGQLYSGVGVSKSVKTLEGTDKKVPSLFMTTEMKTTLFHPDYAPLVELLQTFRGFSTTLKANSPAAQRIEKAFVGLDVVLNYGVHKGLGEDGVVMKIRRFHTSAKETCFEVEKSTREFTNVFDYFKKKYGITLKYPDLFTIEAKGKQGKIHFPAEVLLLCPNQTVTNDQMINNEQADMIKMSAAQPHIRKTTTDTIVRNVGLASNNIYGFIKVEDPVNLEGMVLPKPKIAFAGNRLADLANPKSRFPTDFNRAGQYYDAKELTKWELVFVQNEEVQGLAKQLADEMVNNGMKCSNPTMSFIIRGDLEPIFKKAKAAGTQLLFFVVKSRYNYHQQIKALEQKYDVLTQEIRAETAEKVFRQPQTRLNIINKTNMKLGGLNYAIGSEAFNKPNRLIVGFVTSQRVGGNPDYPISVGFAANMLKHHQKFAGGYVYVHRDRDVFGSIIKDTLLTIFKTCTEQRGRPDDILLYFNGVSEGQFSMINEEFSARVKEACMAFQKEGTPPFRPHITIIASSKAHNERLYKSDKGRIVNLEPGTVVDHTIVSNVYTEWYHASAVARQGTAKATKFTLIFTTKAGPQAEPLWHLEQLTNDLCYDHQIVFHPVGLPVPLYIADRYSQRGAMVLAANQGPIYNEGQIDLAATNSAYGYGEKKLFTTRFNA”, the “soluble on expression in E. coli” value was “not soluble”.

For the sequence “MNKVAQYYRELVASLNERLRNGERDIDALVEQARERVIKTGELTRTEIDELTRAVRRDLEEFAMSYEESLKEESDSVFMRVIKESLWQELADITDKTQLEWREIFQDLNHHGVYHSGEVVGLGNLVCEKCHFHLPIYTPEVLTLCPKCGYDQFQRRPFEP”, the “soluble on expression in E. coli” value was “not soluble”.

For “MKVGQDKVVTIRYTLQVEGEVLDQGELSYLHGHRNLIPGLEEALEGREEGEAFQAHVPAEKAYGPHDPEGVQVVPLSAFPEDAEVVPGAQFYAQDMEGNPMPLTVVAVEGEEVTVDFNHPLAGKDLDFQVEVVKVREATPEELLHGHAHPSGHHHHHH”, the “soluble on expression in E. coli” value is reported as “soluble”.

In the case of “SMSNTTIEDEDVKARKQEIIKVTEQLIEAINNGDFEAYTKICDPGLTAFEPEALGNLVEGMDFHRFYFENALSKSNKPIHTIILNPHVHLVGDDAACIAYIRLTQYMDGSGMPKTMQSEETRVWHRRDGKWQNVHFHRSGSPTV”, the “soluble on expression in E. coli” value is “soluble”.

For the sequence “MLTQYRQAQEDILRGRVKVRVVGQDKGGGVVMGEGVEIAPGARIEGPVLIGGACHIATGAVVGPFTVLGPYTRVEEGATVRRSVLWDNVYTGEGANVRGAVVCSRASLQRRVQVYEGAVIGDGTQVDAGAEVRPEVKVWPEKTLEHHHHHH”, the “soluble on expression in E. coli” value was “not soluble”.

Regarding “SQFVLQDLQDATLGSLLSSLMQHCDPPQRKYPLEKGTPPPWWPTGNEEWWVKLGLPKSQSPPYRKPHDLKKMWKVGVLTAVINHMLPDIAKIKRHVRQSKCLQDKMTAKESAIWLAVLNQEESLIQQ”, the “soluble on expression in E. coli” value is given as “soluble”.

Take “GPVDEVSFHSVVQQLKARQQATDEQLEELQEAFAKVQERNSVFSDWLKISAMLCAATLALSQVVKMAKAVKQMVKPDLVRVQLDEQEQGPYNETARVKPKTLQLLDIQGPNPVMDFEKYVAKHVTAPIGFVYPTGVSTQTCLLVRGRTLVVNRAMAESDWTSIVVRGVTHARSTVKILAIAKAGKETDVSFIRLSSGPLFRDNTSKFVKAGDVLPTGAAPVTGIMNTDIPMMYTGTFLKAGVSVPVETGQTFNHCIHYKANTRKGWSGSALLADLGGSKKILGIHSAGSMGIAAASIVSQEMIRAVVNAFEPQ”: the “soluble on expression in E. coli” value was “soluble”.

For “MGSDKIHHHHHHMQRDLGKNVKLFNDIKADDLSVMLSCLGVKNQQYEKRSIIIMAEDNVDHVGVVLRGAVLIVKEDFSGNRSIVDHIGQYEMFGEAFACAGIQKSPVTVVAAEKSEIMWIQFRRIFNTCSMSCVFHAKLIENMMKVLAVKNLQMNQKLEITSKRNLRDKLMAYLLIQAKEAKSFDFIIPLNRSELADYLYVDRSALSRELCKMRDEGLIEFKKNHFCMSPM”, the “soluble on expression in E. coli” value is on record as “not soluble”.

Take “MASSPQLEEEAAGKLETIHASAMAKSKKKTDVVDSTNLPILELLSLKAPIFQSLLHPELPIIITGFGTGHIVCHRYDPAKLQSHLDRRRRIDTATTGKDAKKGVCPWIRLDIDLETGDLKFVDIEEQQQQKQTGKDEDLGVKTLWKTKRHKGSVRAMCFDSKGDNIFSVGSDNVLKKANTMTGKVVKKVNLSSLFNSEEKKNDKFTKLCASQTHPFILIGDESGNIHVINSENLALSNSIRSIHFGDSINDIFHFDKRSAYKFISLGQTTLAYFDVRDKDAKPNVAGNEDGKILISDDQEDEVLCGCFVDPEVADTLLCGMGEGIVTVWKPNKNDLEDQMSRIKISKDESIDCIVPTLQDDNCVWCGCSNGNIYKVNAKLGKVVEIRNHSELDEVSFVDLDFEYRVVSGGLENIKIWELSSDDVEENASVESDSDEPLSHSDEDLSDDTSSDDETTLVGLSKEELLDELDKDLKEDHQEEKESNSKSVKKRKIMKENNKKKDLYEHGIKKFDDL”: the “soluble on expression in E. coli” value was “soluble”.

“MTWPARRVLYAIWQDPWMTVSRATYISRMLALVNWATWPDDADTSDTPAACVDGDCSRPNAPGERYPTFRWSDALVRELDAVLLSTEPYRFTEDHADALERQIGKPVLLVDGEMLSWYGSRAVAGARYLRSLAQGFLEHHHHHH”: the “soluble on expression in E. coli” value is recorded as “not soluble”.
